Measurements: patent US11230581B2, “Peptides and combination of peptides for use in immunotherapy against ovarian cancer and other cancers” (Immatics Biotechnologies GmbH, priority 2015, dated 2022)

target: HLA-A*02:01 (Homo sapiens, UniProt P04439, D140Y/D185E/D98H/E176V/E277Q/G131W/G231S/I119V/I121R/I166T/I218V/L300P/L318F/N151K/N90K/P208A/P217A/Q86G/Q94H/R138H/R169H/T345S); assay: MHC binding assay (UV-ligand exchange, β2m ELISA, peptide exchange yield); conditions: binding of HLA-class I restricted peptides to HLA-A*02:01, UV-ligand exchange
How it was run: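 Peptide-MHC complexes formed by UV-ligand exchange, cleaving a UV-sensitive placeholder peptide in favour of the test peptide. Exchange yield measured by ELISA: monomers diluted 100-fold onto streptavidin-coated plates, 1 h 37 °C, detected with 2 ug/ml HRP anti-β2m and TMB, absorbance at 450 nm.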

Row | Peptide exchange (MHC class I binding score, peptide exchange yield) | Substance
1 | “+++” (≥50 = +++) | 256 (FLPPEHTIVYI; listed as Homo sapiens) [compound 256]
2 | “++++” (≥75% = ++++) | 51 (LLPDLEFYV; listed as Homo sapiens) [compound 51]
3 | “+++” (≥50 = +++) | 344 (YLQDQHLLLTV; listed as Homo sapiens) [compound 344]
4 | “+++” (≥50 = +++) | 577 (VMFEDGVLMRL; listed as Homo sapiens) [compound 577]
5 | “+++” (≥50 = +++) | 1 (SLMEPPAVLLL; listed as Homo sapiens) [compound 1]
6 | “++” (≥20% = ++) | 412 (YLDDLNEGVYI; listed as Homo sapiens) [compound 412]
7 | “+++” (≥50 = +++) | 130 (FLWNGEDSALL; listed as Homo sapiens) [compound 130]
8 | “++++” (≥75% = ++++) | 77 (ILVEADGAWVV; listed as Homo sapiens) [compound 77]
9 | “+++” (≥50 = +++) | 452 (ILLEHGADPNL; listed as Homo sapiens) [compound 452]
10 | “+++” (≥50 = +++) | 57 (TLAELQPPVQL; listed as Homo sapiens) [compound 57]
11 | “++” (≥20% = ++) | 590 (SLIEKLWQT; listed as Homo sapiens) [compound 590]
12 | “++” (≥20% = ++) | 146 (SLATAGDGLIEL; listed as Homo sapiens) [compound 146]
13 | “+++” (≥50 = +++) | 604 (SILDRDDIFV; listed as Homo sapiens) [compound 604]
14 | “++++” (≥75% = ++++) | 89 (YILPTETIYV; listed as Homo sapiens) [compound 89]
15 | “+++” (≥50 = +++) | 224 (TLIDAQWVL; listed as Homo sapiens) [compound 224]
16 | “+++” (≥50 = +++) | 367 (SLQNHNHQL; listed as Homo sapiens) [compound 367]
17 | “+++” (≥50 = +++) | 205 (SLYPGTETMGL; listed as Homo sapiens) [compound 205]
18 | “+++” (≥50 = +++) | 67 (TLLAEALVTV; listed as Homo sapiens) [compound 67]
19 | “++” (≥20% = ++) | 434 (KVSNSGITRV; listed as Homo sapiens) [compound 434]
20 | “++++” (≥75% = ++++) | 119 (FLYIGDIVSL; listed as Homo sapiens) [compound 119]
21 | “++” (≥20% = ++) | 403 (KLYDRILRV; listed as Homo sapiens) [compound 403]
22 | “++” (≥20% = ++) | 9 (GAAKDLPGV; listed as Homo sapiens) [compound 9]

Row | Peptide exchange (MHC class I binding score, peptide exchange yield) | Substance
23 | “+++” (≥50 = +++) | 575 (YLISQVEGHQV; listed as Homo sapiens) [compound 575]
24 | “+++” (≥50 = +++) | 501 (LLDPNVKSIFV; listed as Homo sapiens) [compound 501]
25 | “++” (≥20% = ++) | 141 (YLDFSNNRL; listed as Homo sapiens) [compound 141]
26 | “+++” (≥50 = +++) | 280 (VLPDPEVLEAV; listed as Homo sapiens) [compound 280]
27 | “+++” (≥50 = +++) | 442 (GLLGGGGVLGV; listed as Homo sapiens) [compound 442]
28 | “+++” (≥50 = +++) | 618 (VLFDSESIGIYV; listed as Homo sapiens) [compound 618]
29 | “++” (≥20% = ++) | 18 (YLVAKLVEV; listed as Homo sapiens) [compound 18]
30 | “++++” (≥75% = ++++) | 552 (GLLDLPFRVGV; listed as Homo sapiens) [compound 552]
31 | “+++” (≥50 = +++) | 216 (NLWEDPYYL; listed as Homo sapiens) [compound 216]
32 | “+++” (≥50 = +++) | 517 (LLMPIPEGLTL; listed as Homo sapiens) [compound 517]
33 | “+++” (≥50 = +++) | 26 (ALLELAEEL; listed as Homo sapiens) [compound 26]
34 | “++++” (≥75% = ++++) | 108 (ALFPGVALLLA; listed as Homo sapiens) [compound 108]
35 | “+++” (≥50 = +++) | 171 (LLLPLQILL; listed as Homo sapiens) [compound 171]
36 | “++” (≥20% = ++) | 380 (TLIEDEIATI; listed as Homo sapiens) [compound 380]
37 | “+++” (≥50 = +++) | 215 (QLINHLHAV; listed as Homo sapiens) [compound 215]
38 | “+++” (≥50 = +++) | 139 (SVMEVNSGIYRV; listed as Homo sapiens) [compound 139]
39 | “++” (≥20% = ++) | 432 (TLIEESAKV; listed as Homo sapiens) [compound 432]
40 | “+++” (≥50 = +++) | 182 (MLLEAPGIFL; listed as Homo sapiens) [compound 182]
41 | “+++” (≥50 = +++) | 101 (ILVGGGALATV; listed as Homo sapiens) [compound 101]
42 | “++” (≥20% = ++) | 64 (YAAPGGLIGV; listed as Homo sapiens) [compound 64]
43 | “+++” (≥50 = +++) | 166 (YLNHLEPPV; listed as Homo sapiens) [compound 166]
44 | “++” (≥20% = ++) | 227 (ALMNTLLYL; listed as Homo sapiens) [compound 227]

Row | Peptide exchange (MHC class I binding score, peptide exchange yield) | Substance
45 | “+++” (≥50 = +++) | 444 (GLLRDEALAEV; listed as Homo sapiens) [compound 444]
46 | “++++” (≥75% = ++++) | 3 (SLASKLTTL; listed as Homo sapiens) [compound 3]
47 | “+++” (≥50 = +++) | 469 (YLASDEITTV; listed as Homo sapiens) [compound 469]
48 | “+++” (≥50 = +++) | 396 (ALLPDLPAL; listed as Homo sapiens) [compound 396]
49 | “+++” (≥50 = +++) | 16 (VLFQGQASL; listed as Homo sapiens) [compound 16]
50 | “+++” (≥50 = +++) | 591 (SMAELDIKL; listed as Homo sapiens) [compound 591]
51 | “++” (≥20% = ++) | 319 (SLEPQIQPV; listed as Homo sapiens) [compound 319]
52 | “+++” (≥50 = +++) | 158 (KLFDVDEDGYI; listed as Homo sapiens) [compound 158]
53 | “++++” (≥75% = ++++) | 585 (ALWDLAADKQTL; listed as Homo sapiens) [compound 585]
54 | “+++” (≥50 = +++) | 25 (FLPDEPYIKV; listed as Homo sapiens) [compound 25]
55 | “++++” (≥75% = ++++) | 438 (KLLPLAGLYL; listed as Homo sapiens) [compound 438]
56 | “+++” (≥50 = +++) | 369 (GLFPEHLIDV; listed as Homo sapiens) [compound 369]
57 | “+++” (≥50 = +++) | 250 (ALSEEGLLVYL; listed as Homo sapiens) [compound 250]
58 | “++” (≥20% = ++) | 377 (FLLDSSASV; listed as Homo sapiens) [compound 377]
59 | “++” (≥20% = ++) | 186 (TLFFQQNAL; listed as Homo sapiens) [compound 186]
60 | “+++” (≥50 = +++) | 174 (ALAQYLITA; listed as Homo sapiens) [compound 174]
61 | “++++” (≥75% = ++++) | 68 (SLMELPRGLFL; listed as Homo sapiens) [compound 68]
62 | “+++” (≥50 = +++) | 472 (KLLEVSDDPQV; listed as Homo sapiens) [compound 472]
63 | “++” (≥20% = ++) | 242 (AIAYILQGV; listed as Homo sapiens) [compound 242]
64 | “+++” (≥50 = +++) | 48 (ALAELYEDEV; listed as Homo sapiens) [compound 48]
65 | “++” (≥20% = ++) | 92 (YLIPFTGIVGL; listed as Homo sapiens) [compound 92]
66 | “+++” (≥50 = +++) | 142 (FLFATPVFI; listed as Homo sapiens) [compound 142]
